Reference: patent publication US20230212587A1, “Mutant Hydroxyphenylpyruvate Dioxygenase Polypeptide, Encoding Gene Thereof and Use Therefor” (Beijing Dabeinong Biotechnology Co., Ltd., priority 2019, published 2023)
Where a chain is given by its changes, count along the chain named. Names and notes keep the numbering of the source.

B1: SiHPPDm-F372G: Setaria italica HPPD mutant F372G, SEQ ID NO: 307 (protein)
chain: MPPTPTPAAAAPGAAAAPAAGDQAAFRLVGHRGFVRVNPRSDRFHTLSFHHVELWCADATSAAGRFSFGLGAPLAARSDLSTGNSAHASLLLRSGSLAFLFTAPYAHGVDAATASLPSFSAPAARSFAADHGLAVRAIGLRVADAEDAFRASVAAGARPAFKPVELGLGFRLAEVELYGDVVLRYVSYPDAEDAPFLPGFENVNNPGALNYGLRRFDHIVGNVPELAPVAAYVAGFTGFHEFAEFTAEDVGTAESGLNSMVLANNSETVLIPLNEPVHGTKRRSQIQTFLDHNGGPGVQHIALASDDVLRTLREMQARSAMGGFEFMAAPPPDYYEGVRRRAGDVLSEAQIKECQELGVLVDRDDQGVLLQIGTKPVGDRQTLFLEIIQRIGCMEKDEQGQEYQKGGCGGFGKGNFSQLFKSIEDYEKSLESKQAAAVQGS
modifications: SiHPPDm-F372G Amino Acid Sequence
B2: SbHPPDm-F372G: Sorghum bicolor HPPD mutant F372G, SEQ ID NO: 309 (protein)
chain: MPPTPTTAAATGAAVAAASAEQAAFRLVGHRNFVRVNPRSDRFHTLAFHHVELWCADAASAAGRFSFGLGAPLAARSDLSTGNTAHASLLLRSGALAFLFTAPYAHGADAATASLPSFSAAEARRFAADHGLAVRAVALRVADAEDAFRASVAAGARPAFEPVELGLGFRLAEVELYGDVVLRYVSYPDDADASFLPGFVGVTSPGAADYGLRRFDHIVGNVPELAPAAAYFAGFTGFHEFAEFTAEDVGTTESGLNSMVLANNAENVLLPLNEPVHGTKRRSQIQTYLDHHGGPGVQHMALASDDVLRTLREMQARSAMGGFEFMAPPAPEYYDGVRRRAGDVLTEAQIKECQELGVLVDRDDQGVLLQIGTKPVGDRPTLFLEIIQRIGCMEKDEKGQEYQKGGCGGFGKGNFSQLFKSIEDYEKSLEAKQAAAAQGS
modifications: SbHPPDm-F372G Amino Acid Sequence
B3: HvHPPDm-F372G: Hordeum vulgare HPPD mutant F372G, SEQ ID NO: 305 (protein)
chain: MPPTPTTPAATGAAAAVTPEHARPHRMVRFNPRSDRFHTLSFHHVEFWCADAASAAGRFAFALGAPLAARSDLSTGNSAHASQLLRSGSLAFLFTAPYANGCDAATASLPSFSADAARRFSADHGIAVRSVALRVADAAEAFRASRRRGARPAFAPVDLGRGFAFAEVELYGDVVLRFVSHPDGTDVPFLPGFEGVTNPDAVDYGLTRFDHVVGNVPELAPAAAYIAGFTGFHEFAEFTAEDVGTTESGLNSVVLANNSEGVLLPLNEPVHGTKRRSQIQTFLEHHGGPGVQHIAVASSDVLRTLRKMRARSAMGGFDFLPPPLPKYYEGVRRLAGDVLSEAQIKECQELGVLVDRDDQGVLLQIGTKPVGDRPTLFLEMIQRIGCMEKDERGEEYQKGGCGGFGKGNFSELFKSIEDYEKSLEAKQSAAVQGS
modifications: HvHPPDm-F372G Amino Acid Sequence
B4: BdHPPDm-F372G: Brachypodium distachyon HPPD mutant F372G, SEQ ID NO: 303 (protein)
chain: MPPPATTAAPAAAAVTPEHARPPRRVARVNPRSDRFSALSFHHVELWCADAASAAGRFSFALGAPPAARSDLSTGNSAHASILLRSGSLAFLFTAPYAPSPASDSAASIPSFSASAARQFTADHGGLAVRAVALRVSSASDAFHASVSAGARPSFPPADLGQGFALAEVELYGDVVLRFISHPDENTEIPFLPGFESVSNPGASTYGLTRFDHVVGNVPSLAPVAAYIAGFTGFHEFAEFTAEDVGTADSGLNSVVLANNSERVLLPLNEPVHGTKRRSQIQTYLDHHGGPGVQHIALASDDVLRTLREMRARSAMGGFEFLAPPPPNYYDGVRRRAGDVLSEAQIKECQELGVLVDRDDQGVLLQIGTKPVGDRPTLFLEMIQRIGCMEKDEIGQEQQKGGCGGFGKGNFSELFRSIEEYEKSLEAKQSAVVQES
modifications: BdHPPDm-F372G Amino Acid Sequence
B5: F372 deletion (protein, listed as Avena sativa)
chain: MPPTPATATGAAAAAVTPEHAARSFPRVVRVNPRSDRFPVLSFHHVELWCADAASAAGRFSFALGAPLAARSDLSTGNSAHASLLLRSGALAFLFTAPYAPPPQEAATAAATASIPSFSADAARTFAAAHGLAVRSVGVRVADAAEAFRVSVAGGARPAFAPADLGHGFGLAEVELYGDVVLRFVSYPDETDLPFLPGFERVSSPGAVDYGLTRFDHVVGNVPEMAPVIDYMKGFLGFHEFAEFTAEDVGTTESGLNSVVLANNSEAVLLPLNEPVHGTKRRSQIQTYLEYHGGPGVQHIALASNDVLRTLREMRARTPMGGFEFMAPPQAKYYEGVRRIAGDVLSEEQIKECQELGVLVDRDDQGVLLQITKPVGDRPTFFLEMIQRIGCMEKDEVGQEYQKGGCGGFGKGNFSELFKSIEDYEKSLEVKQSVVAQKS
modifications: AsHPPD Amido Acid Sequence
B6: F372C (protein, listed as Avena sativa)
chain: MPPTPATATGAAAAAVTPEHAARSFPRVVRVNPRSDRFPVLSFHHVELWCADAASAAGRFSFALGAPLAARSDLSTGNSAHASLLLRSGALAFLFTAPYAPPPQEAATAAATASIPSFSADAARTFAAAHGLAVRSVGVRVADAAEAFRVSVAGGARPAFAPADLGHGFGLAEVELYGDVVLRFVSYPDETDLPFLPGFERVSSPGAVDYGLTRFDHVVGNVPEMAPVIDYMKGFLGFHEFAEFTAEDVGTTESGLNSVVLANNSEAVLLPLNEPVHGTKRRSQIQTYLEYHGGPGVQHIALASNDVLRTLREMRARTPMGGFEFMAPPQAKYYEGVRRIAGDVLSEEQIKECQELGVLVDRDDQGVLLQICTKPVGDRPTFFLEMIQRIGCMEKDEVGQEYQKGGCGGFGKGNFSELFKSIEDYEKSLEVKQSVVAQKS
modifications: AsHPPD Amido Acid Sequence
B7: F372M (protein, listed as Avena sativa)
chain: B6 chain with C372M
modifications: AsHPPD Amido Acid Sequence
B8: F372K. (protein, listed as Avena sativa)
chain: B6 chain with C372K
modifications: AsHPPD Amido Acid Sequence
B9: F372E (protein, listed as Avena sativa)
chain: B6 chain with C372E
modifications: AsHPPD Amido Acid Sequence

system: Arabidopsis thaliana T1 plants; test: Topramezone tolerance of transgenic Arabidopsis thaliana T1 plants (pesticide damage grade by bleached leaf area, score, resistance evaluation); format: in vivo; set-up: score: scale not given here; conditions: topramezone 25 g ai/ha (1x); HPPD F372G mutants, Table 6
Outline: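 Eighteen days after sowing, wild-type and HPPD-transgenic T1 Arabidopsis receive a topramezone spray at 1×, 2× or 4× field rate (25–100 g ai/ha) or water. Seven days later each plant is graded by its proportion of bleached leaf area.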

With B1 the Resistance evaluation was “Moderately resistant”.
With B2 the Resistance evaluation was “Moderately resistant”.
In the case of B3, the Resistance evaluation is reported as “Highly resistant”.
For B4, the Resistance evaluation was “Highly resistant”.

same assay, conditions: topramezone 25 g ai/ha (1x); HPPD from Avena sativa source

For B5, the “Resistance Grade” value was “Highly resistant”.
For B6, the “Resistance Grade” value was “Highly resistant”.
In the case of B7, the “Resistance Grade” value is reported as “Highly resistant”.
With B8 the “Resistance Grade” value was “Moderately resistant”.
In the case of B9, the “Resistance Grade” value is reported as “Poorly resistant”.

In order of falling score:
1. B9  60
2. B8  33
3. B5  0
4. B6  0
5. B7  0

same assay, conditions: topramezone 25 g ai/ha (1x); number of plants; HPPD from Avena sativa source

In order of falling “Grade 0” value:
1. B5  20
2. B6  20
3. B7  20
4. B8  0
5. B9  0

In order of rising “Grade 1” value:
1. B5  0
2. B6  0
3. B7  0
4. B9  8
5. B8  20

In order of falling “Grade 2” value:
1. B9  8
2. B5  0
3. B6  0
4. B7  0
5. B8  0

In order of rising “Grade 3” value:
1. B5  0
2. B6  0
3. B7  0
4. B8  0
5. B9  4

same assay, conditions: topramezone 50 g ai/ha (2x); HPPD from Avena sativa source

In the case of B5, the “Resistance Grade” value is reported as “Highly resistant”.
With B6 the “Resistance Grade” value was “Highly resistant”.
With B7 the “Resistance Grade” value was “Moderately resistant”.
In the case of B8, the “Resistance Grade” value is reported as “Poorly resistant”.
For B9, the “Resistance Grade” value was “Poorly resistant”.

In order of rising score:
1. B5  0
2. B6  3
3. B7  20
4. B8  47
5. B9  63

same assay, conditions: topramezone 50 g ai/ha (2x); number of plants; HPPD from Avena sativa source

In order of rising “Grade 0” value:
1. B9  0
2. B8  2
3. B7  8
4. B6  18
5. B5  20

In order of rising “Grade 1” value:
1. B5  0
2. B6  2
3. B9  6
4. B8  8
5. B7  12

In order of rising “Grade 2” value:
1. B5  0
2. B6  0
3. B7  0
4. B8  10
5. B9  10

In order of rising “Grade 3” value:
1. B5  0
2. B6  0
3. B7  0
4. B8  0
5. B9  4

same assay, conditions: topramezone 100 g ai/ha (4x); HPPD F372G mutants, Table 6

B1 was tested, and the Resistance evaluation was “Poorly resistant”.
B2 was tested, and the Resistance evaluation was “Non-resistant”.
In the case of B3, the Resistance evaluation is reported as “Poorly resistant”.
In the case of B4, the Resistance evaluation is reported as “Moderately resistant”.

same assay, conditions: topramezone 100 g ai/ha (4x); HPPD from Avena sativa source

In the case of B5, the “Resistance Grade” value is reported as “Highly resistant”.
For B6, the “Resistance Grade” value was “Moderately resistant”.
In the case of B7, the “Resistance Grade” value is reported as “Poorly resistant”.
B8 was tested, and the “Resistance Grade” value was “Non-resistant”.
B9 was tested, and the “Resistance Grade” value was “Non-resistant”.

In order of rising score:
1. B5  3
2. B6  27
3. B7  50
4. B8  90
5. B9  97

same assay, conditions: topramezone 100 g ai/ha (4x); number of plants; HPPD from Avena sativa source

In order of rising “Grade 0” value:
1. B8  0
2. B9  0
3. B7  2
4. B6  8
5. B5  18

In order of falling “Grade 1” value:
1. B6  8
2. B7  6
3. B5  2
4. B8  0
5. B9  0

In order of falling “Grade 2” value:
1. B7  12
2. B8  6
3. B6  4
4. B9  2
5. B5  0

In order of falling “Grade 3” value:
1. B9  18
2. B8  14
3. B5  0
4. B6  0
5. B7  0
